For experiment [1], the target named is Nse2 ΔLoop1-SIM1 (budding yeast (Saccharomyces cerevisiae)) (UniProt P38632).
Experiment [2] concerns the target Nse2 1-267 (budding yeast (Saccharomyces cerevisiae)) (UniProt P38632).
Experiment [3] deals with Δ4C-Nse2 (ΔSIM2) (budding yeast (Saccharomyces cerevisiae)) (UniProt P38632).
The target of experiment [4] is Ubc9 A129K/K153R (yeast (Saccharomyces cerevisiae)) (UniProt P50623).

Substance “FL Smt3 (from UniProt Q12306 1-101) (natural protein)” came in with a multiple-turnover SUMO conjugation on cNse4 by Nse2 ΔLoop1-SIM1/Arm-Smc5 against WT-Nse2, 30 °C in experiment [1] of less than 90 % reduction.
In the case of “ΔN18 Smt3 (from UniProt Q12306 19-101) (domain or fragment)”, the Kcat/KM of single-turnover SUMO conjugation on cp53 (0.5 to 8 µM) by WT Nse2/Arm-Smc5 with extra non-conjugatable Smt3, 2 °C in experiment [2] was 0.025. For the same substance, the Kcat/KM of single-turnover SUMO conjugation on cp53 (0.5 to 8 µM) by Δ4C-Nse2 (ΔSIM2)/Arm-Smc5 with extra non-conjugatable Smt3, 2 °C in experiment [3] came to 0.007. The substance further gave a Kcat of single-turnover discharge of purified Ubc9 K153R~Smt3 K11C/D68R-Alexa488 thioester on cp53 by Nse2/Arm-Smc5, with against without 1.5-fold excess of non-conjugatable SUMOB, 30 °C in experiment [4] of 3 fold.

Source of the values: publication PMC8636563.
